A short description of this data set: label from the status in PepcDB records.
As to “MADKAFHTRLINMRRDLHEHPELSFQEVETTKKIRRWLEEEQIEILDVPQLKTAVIAEIKGREDGPVIAIRADIDALPIQEQTNLPFASKVDGTMHACGHDFHTASIIGTAMLLNQRRAELKGTVRFIFQPAEEIAAGARKVLEAGVLNGVSAIFGMHNKPDLPVGTIGVKEGPLMASVDRFEIVIKGKGGHASIPNNSIDPIAAAGQIISGLQSVVSRNISSLQNAVVSITRVQAGTSWNVIPDQAEMEGTVRTFQKEARQAVPEHMRRVAEGIAAGYGAQAEFKWFPYLPSVQNDGTFLNAASEAAARLGYQTVHAEQSPGGEDFALYQEKIPGFFVWMGTNGTEEWHHPAFTLDEEALTVASQYFAELAVIVLETIK”, the protein production entry is “not failed”.
With “MADKAVADRTIEGLTRAGAAMAAGEIDQAAAHLQAAAQLCPDEPMIWALLGEVLLLLDRPQDGLGALDRALALAPEDPRPRFHRARAFERLDRLAEALADQEALAILCANKAEVWHNLGLLRRAGGDPSGAEAAFGRALALEPSRAESALALAHSLLGRAAWAEGFAHYEARLSLPGWQRPAPLPGRRWRGEDPAGRTLLVSAEQGLGDGVQFLRYLPLIKGAGKVIVECHPPLRRLIAAQPGVDATIAFGEAIPDLGAEGLTIPLASLALPLAGGAPLGERIPYVSKPRLRPQGDRPRIGLAWRSSDRAELRRDPPLAALAALAAIPAVDWVSLQFAPTDYPALPLDLRPMASVDDLDDTAALIADLDLVISVDTAVAHLAGAMGKPLWVLLGPRADWRWTASAQSSPWYPSCVPFFHGAEGWPGVIAAVSERLKAAFNGPPAR”, the protein production entry is “failed”.
For the sequence “MADKVYEATAEAKGYNEEGVPIVLTVKAIKKDGKVVVTDIVAKHQETDKIGAVAIEKLIEEVKTKQNYNKLDSVAGATSTSAGFRRAIRNAVKDIEKQNLEHHHHHH”, the protein production result is listed as “not failed”.
As for “MADMESLDTAEMQEAAEKQAALFPNGGKSAEPTAAKHTATGLADGNKKPPVSNSFLDKFFQISKRGSTLAREFRGGLVTFFTMAYIVILNPLILGGFSAENAPTDVAGGWLSAAQVGAVTGLTAGVMTIIFGLVANLPFGLAAGLGINSFLAVAVIQEVTWPEAMGLVVINGILIVLFGATGARTAIFKAVPKELKAAITVGIGLFIAFIGFVDSGFVRATTGGPPVQLGDNGSITSIPTLVFIVGLLTMGILVARKIQGGLLIGIVATTVLAAVVEAVFHIGPGSADNPGGWHLNVPILSSQLVSVPDLSLVGQFDLFGSFARIGGLAATMLVFTLVFTNFFDAMGTMTGLAKSAGVAHKDGTFPKLKSAFIVEGMGAVVGGATSGSSNTVYIDSAAGIGEGARTGLASVVTGLLFLGSMFFTPLTSVVPLEVAAAALVVVGAMMMAQIREIKFTKFSIALPAFLTIVTMPLTYSIANGIGVGFISFAVISAASGKAKKVHPLMWVVTAGFIIYFARGPINALMGV”, the entry is “failed”; as for “MADNSATRVRVPSDRNSRRKIKGEVDIISSLPDVILQHILFSFQTKYAIRTSVLSKRWRHEADAINKALSQYTAPKMMNFHLKINKNNSLHHIKKWTEFAMSRNVENMSLDVRFRSNKIPRFYEINSSVKSLSHRLDLHDVIPRHGVSWTSLKKFSLSYCGLPDESAKILSGCPILEWPMQIVAPQIHCLKLRNTQLPCTLVDVSSLTEAEVLDIIIFPVNLSYNADFLHATMLEMLKKLKNVEKLTFSGSYLQNLSVAEKRGVPFPMFKVKALTLEMKHFVISDIERMLQSSPNLKKLTVRAKDNTGKYLYRYFARLESGSMLELKKGV”, “failed”.
With “MADPIRIFIGSGEASRIERQVAIDSLQRMTDRPLAITAFNGTHNALEVLGEPPRPAPMSLRVKYWNATEFSLYRFLIPELCGYQGRAIYIDSDVVCLHDIGELFDTDLEGADFLAKAEAYPDRAGALWGLSVVLFDCDRCRFPLEQFIDELEAGVYDYRDLPCMGPRFLNKRPYQIGALDPRWNSFDFADRETRLIHYTDLKRQPWKRPGHPYGDLWFKAMQQALDSGILTDTEISQAIKRFNVRDDIREGNRPRWLTRQRLRSWLRQVKQQLRPVKV” the entry was “failed”.
As for “MADQLIEEVKQLIIDALRIEGMTPAEIDTDAPLFGEGLGLDSIDALQLVVAMEKQYGVVVPDAATGTKVFQSVRTVADFVAENRKLEHHHHHH”, the entry is “failed”; as for “MADRVIRADAKGVMRVEDGQAYNEAGQRLDDHALIPPEDANEDQARLNAQLAARDAAGLIVDLHNRGIDRHLWEQNEDAIGVERHNRGVDRHQPQIPAAIPLAAEPRRTLGDFNRPGMFYANRSAIVPPPYQRNDYESHLFYYITLHI”, “failed”.
As for “MADTGEVQFMKPFISEKSSKSLEIPLGFNEYFPAPFPITVDLLDYSGRSWTVRMKKRGEKVFLTVGWENFVKDNNLEDGKYLQFIYDRDRTFYVIIYGHNMC”, the protein production result is on record as “not failed”.

The values above are taken from a protein production outcome set (Wang et al. 2014).
